Consider 20 sequences from the DeepSol protein solubility set.

The nature of this series: soluble on expression in E. coli; label from the status in PepcDB or PDB records.
Take “MASEHFDMWESRFSADGYLFGTAPNAFLASCHDLLPKQGRALAIADGEGRNGVFLAECGLSVLSVDFSPTAQAKAHKLAAERGVTIETRTADLLSWQWPGGFDVIAGIFFQFVEPEQRPQIFQQIRAALKPGALLLIEGYRPKQLAYKTGGPSRAENLYTRELLEQAFGDFDNLSIRERDSEIVEGAGHAGLSALIDLIGWKPKLEHHHHHH”: the “soluble on expression in E. coli” value is given as “not soluble”.
On to “MASFKVKPEHTGPPDLYYNETEAAKYASNSHITAIQHEMAERALELLALPEGKSGFLLDIGCGTGMSSEVILDAGHMFVGVDVSRPMLEIARQDEDLESGDFIHQDMGLGMPFRPGSFDGAISISAIQWLCHANASDENPRKRLLFFFQSLYGCLGRGSRAVFQFYPENDEQCDLIMGQAHKAGFNGGLVVDFPEAAKRKKVYLVLMTGGVVQLPQALTEDGEESRTQIDNAGRRFVWNSRKNEKVAKGSKAWIEAKRQRQIKQGRDVRHESKYSGRKRKTKF”, for which the “soluble on expression in E. coli” value is recorded as “not soluble”.
Take “MASGENLAPRDAKVISVILRSLGIEECEPKVIIQLLEFAYRYTTDVLEDALLFAKHTGRTHITTSDVKLALQTKVGRHFVPPPPRQYLSEISTMVNSKPLTIPDGENLIRVPPSSSALLNLDYEVLRKDSDKKRRIY”: the “soluble on expression in E. coli” value was “not soluble”.
Consider “MASGILVNVKEEVTCPICLELLTQPLSLDCGHSFCQACLTANHKKSMLDKGESSCPVCRISYQPENIRPNRHVANIVEKLREVKLSPEGQKVDHCARHGEKLLLFCQEDGKVICWLCERSQEHRGHHTFLTEEVAREYQVKLQAALEMLRQKQQEAEELEADIREEKASWKTQIQYDKTNVLADFEQLRDILDWEESNELQNLEKEEEDILKSLTNSETEMVQQTQSLRELISDLEHRLQGSVMELLQGVDGVIKRTENVTLKKPETFPKNQRRVFRAPDLKGMLEVFRELTDVRRYWGKEKSHYHKPPCGLSLLLSLSFRILCSLLGSCFKIYDSPSKTHITYPSL”, for which the “soluble on expression in E. coli” value is recorded as “soluble”.
Consider “MASKLLRAVILGPPGSGKGTVCQRIAQNFGLQHLSSGHFLRENIKASTEVGEMAKQYIEKSLLVPDHVITRLMMSELENRRGQHWLLDGFPRTLGQAEALDKICEVDLVISLNIPFETLKDRLSRRWIHPPSGRVYNLDFNPPHVHGIDDVTGEPLVQQEDDKPEAVAARPRQYKDVAKPVIELYKSRGVLHQFSGTETNKIWPYVYTLFSNKITPIQSKEAYLEHHHHHH”, for which the “soluble on expression in E. coli” value was “soluble”.
On to “MASLFTQEIHLSKRHEEILSQRLMLLQKMKNKFGDENTERASLLQATETASRRNLRLLKDIDAAEEAFQTKLIPHPQPSMLSLETRYWASVEEHIPKWELFLLGRAPYPIGAENQNEVPFVQTEATL”, for which the “soluble on expression in E. coli” value is recorded as “soluble”.
As for “MASLGEILEGRATDIYFVRTRRVAEKYGVGGKRVRMEVHAYSLPRGYEWAVYAGLEEALALLQGKPVTVYSLPEGTVFERKDPLMVVEGRFQDIILFETALLGLLRFSTSIATKAARVRLAAGRGKTVLFFGLRALHPAVQPAADRAALVGGLDGVSGVLSREYLGVEPRGTMPHALIIVFGSQVEAWRAFAETFKEETPVIALVDTFWDEREEALMAARELGEVLAGVRLDTPSSRRGRMRDIVEEVRWALDIHGYKHVKIFVSGGLDEERVAELRDVADGFGVGTTIAAAPNIDISMDVVEVHEDGEWRPRTKRGKLPGARSIVLCRGEKRIVRLGEEPEGCEPLTRKYLEEGRLAQSLPSLDEIRSYVLKQLENLGLQ”, the entry is “soluble”; as for “MASLPTANPDLVVSDAKKPKWSWRAIKSFAMGELEARKLKYPNTGTEALLMGILIEGTSFTSKFLRANKIMLYKVREETVKLLGKADMYFFSPEHPPLTEDAQRALDSALDQNLKAGGIGEVMPAHILLGIWSEVESPGHKILATLGFTDEKSKELESFASESGFLDELEHHHHHH”, “soluble”; as for “MASMTGGQQMGRGSEEPNPNDGYDYMQHGFDWPGLQEGGTTKYPACSGSNQSPIDINTNQLMEPSSRSGTSAVSLNGLNVDGAQADGITLTNAKVDLEQGMKVTFDQPAANLPTIEIGGTTKSFVPIQFHFHHFLSEHTINGIHYPLELHIVMQEQDPADVATAQLAVIGIMYKYSENGDAFLNSLQTQIEGKIGDGTASYGDTGVSIDNINVKTQLLPSSLKYAGYDGSLTTPGCDERVKWHVFTTPREVTREQMKLFVDVTMGAHAGADVVNNRMIQDLGDREVYKYNY”, “soluble”.
“MASNEVLVLRGTLEGHNGWVTSLATSAGQPNLLLSASRDKTLISWKLTGDDQKFGVPVRSFKGHSHIVQDCTLTADGAYALSASWDKTLRLWDVATGETYQRFVGHKSDVMSVDIDKKASMIISGSRDKTIKVWTIKGQCLATLLGHNDWVSQVRVVPNEKADDDSVTIISAGNDKMVKAWNLNQFQIEADFIGHNSNINTLTASPDGTLIASAGKDGEIMLWNLAAKKAMYTLSAQDEVFSLAFSPNRYWLAAATATGIKVFSLDPQYLVDDLRPEFAGYSKAAEPHAVSLAWSADGQTLFAGYTDNVIRVWQVMTAN”: the “soluble on expression in E. coli” value was “soluble”.
For the sequence “MASQSQGIQQLLQAEKRAKDKLEEAKKRKNKRLRQAKEEATADIDQYRLKREADFRRIQTSVMGSQGNLAVKIEEQTVEKIQFYSSSYNKYKEGVLKELLDLAYNIKPELHTNYKYKI”, the “soluble on expression in E. coli” value is “not soluble”.
As to “MASRLNEDPEGSRITYVKGDLFACPKTDSLAHCISEDCRMGAGIAVLFKKRFGGVQELLSQQKKSGEVAVLKRDGRYIYYLITKKRASHKPTYENLQKSLEAMKSHCLKNGVTDLSMPRIGCGLDRLQWENVSAILEEVFESTDIKITVYTL”, the “soluble on expression in E. coli” value was “not soluble”.
Regarding “MASSSNFMAPPPKMNKTSSMNSLRKTLGLKKPNNGELSMVPSRPIVSPTLSSPLQGSGAAPLEKDYHSLEYRLTHGHWRIFNSKSVFGNKDASVLVFDKKSNVKAPPKLGKSKTYSMFDLIKYETQQLMGLIHPRILHMEHSLEETKDYISFATEQIFGNLENVVTDESLDRLEIKLGVLQIIDGMSYLHNSAKMLHGNLTPDAIYVTATKTWKIGGFSFAVNAKEPNCYPCYPWTKKLPPCLQPDLDFLAPENLAPGQTTVTSAADVFSLGVLICWIYAGGKRLIDAKSNLETYHIVVGQLDAALQCISNELGPNLKDSMAKVLSLDVEVRPTVQLLSLIKHFDDPCLSALRQLDDIAQVFDPSQKSHFLSQTLNVAIPHISESVWFNRVLPRFNEQLLELPEMYYPITKPLFHILEHCESHNIHKMKPWIRKLMEAAPHNKLLRAFILENMSALFRRLSDEFVEDKCLDVIILSLKSEDTSLQSSAVRGLPHVAEYLPVGFITKKLIPAIMGLPPFLHENVPRQLDLLAALAALSDRCDVSSIVHLFGCISLCNSSHPVIVHAKSRIVQRLVMRDPNRLKDSQLLSIHLLNPLVNGLACKDLSTFSCAHFDDVLSSVRILLDVLEQRRYEMEDRQEHKQSNHHLGLNRLGNRRVSMSSTNLPRVMISAARPSFSSDSRKMSFLSADGRLEDRGSRRESRDSRGSLESDMSIRIGNGSDISDDSCFSSHSAKGRRQSWLDGYGHSVSLEQNTNGFLETTSRNLGDRNSMNFKQRNARASERRARTRSPNAELDPQREQPPARPNSFTNLGHNIVLTYRNLLYKDHT”, the “soluble on expression in E. coli” value is given as “not soluble”.
In the case of “MASSTISLQSISMTTLNNLSYSKQFHRSSLLGFSKSFQNFGISSNGPGSSSPTSFTPKKKLTPTRALSQNLGNTENPRPSKVQELSVYEINDLDRHSPKILKNAFSFRFGLGDLVPFTNKLYTGDLKKRVGITAGLCVVIEHVPEKNGDRFEATYSFYFGDYGHLSVQGPYLTYEDSFLAITGGAGIFEGAYGQVKLQQLVYPTKLFYTFYLKGLANDLPLELIGTPVPPSKDVEPAPEAKALKPSGVVSNFTN”, the “soluble on expression in E. coli” value was “soluble”.
Consider “MASTANMISQLKKLSIAEPAVAKDSHPDVNIVDLMRNYISQELSKISGVDSSLIFPALEWTNTMERGDLLIPIPRLRIKGANPKDLAVQWAEKFPCGDFLEKVEANGPFIQFFFNPQFLAKLVIPDILTRKEDYGSCKLVENKKVIIEFSSPNIAKPFHAGHLRSTIIGGFLANLYEKLGWEVIRMNYLGDWGKQFGLLAVGFERYGNEEALVKDPIHHLFDVYVRINKDIEEEGDSIPLEQSTNGKAREYFKRMEDGDEEALKIWKRFREFSIEKYIDTYARLNIKYDVYSGESQVSKESMLKAIDLFKEKGLTHEDKGAVLIDLTKFNKKLGKAIVQKSDGTTLYLTRDVGAAMDRYEKYHFDKMIYVIASQQDLHAAQFFEILKQMGFEWAKDLQHVNFGMVQGMSTRKGTVVFLDNILEETKEKMHEVMKKNENKYAQIEHPEEVADLVGISAVMIQDMQGKRINNYEFKWERMLSFEGDTGPYLQYAHSRLRSVERNASGITQEKWINADFSLLKEPAAKLLIRLLGQYPDVLRNAIKTHEPTTVVTYLFKLTHQVSSCYDVLWVAGQTEELATARLALYGAARQVLYNGMRLLGLTPVERM”, for which the “soluble on expression in E. coli” value is listed as “soluble”.
Regarding “MASVVGTPKSAEQIQQEWDTNPRWKDVTRTYSAEDVVALQGSVVEEHTLARRGAEVLWEQLHDLEWVNALGALTGNMAVQQVRAGLKAIYLSGWQVAGDANLSGHTYPDQSLYPANSVPQVVRRINNALQRADQIAKIEGDTSVENWLAPIVADGEAGFGGALNVYELQKALIAAGVAGSHWEDQLASEKKSGHLGGKVLIPTQQHIRTLTSARLAADVADVPTVVIARTDAEAATLITSDVDERDQPFITGERTREGFYRTKNGIEPCIARAKAYAPFADLIWMETGTPDLEAARQFSEAVKAEYPDQMLAYNCSPSFNWKKHLDDATIAKFQKELAAMGFKFQFITLAGFHALNYSMFDLAYGYAQNQMSAYVELQEREFAAEERGYTATKHQREVGAGYFDRIATTVDPNSSTTALTGSTEEGQFH”, the “soluble on expression in E. coli” value is listed as “soluble”.
As to “MASWTLVDASAIAVRHPYTFYKPDAETIDRVAAGESVKLIFAFDTDNPDAPRAERLWVTVEGIEADGAFSGRLDNYPQYIRDLSLGERIVFEARHIINTEHDPRETPISRYARRCFVTRRVIDEGKAVGYLYREAPEEENDSGWRLMAGDESDDYMNTAGTTAYVSLGSVLNADDSILPLLDAPPGRAFERLADGSFIEVQGPEG”, the “soluble on expression in E. coli” value is “not soluble”.
As for “MASYTLRQLKYFVTTVECGSVAEASRKLYIAQPSISTAVKGLEESFGVQLFIRHHAQGVSLTPAGARFYRKAQELLRMAHEFEQNALADNDVIAGQIDIGCFETVAPLYLPGLIAGFRQAYPGVEIRIRDGEQQELVQGLTSGRFDLAFLYEHDLDSTIETEPLMPPQRPHALLPEGHRFAGQAQVSLRDLCLEPMILLDVQPSRTYFVSLFEELGLTPNIAFSSPSIEMVRGMVGQGFGFSLLVTRPHSECTYDGKKVVMVDLAEPVSTSGLAAAWLKRAQLTKPARLFVDYCREQLGKLAERRH”, the “soluble on expression in E. coli” value is “soluble”.
For “MATASADTLCSQQEDESWGNLMLHGFQVEAYKPVRVGDKVCYSFYLKNTGSSDVTLGKKGVYLHTNDGDLSSNSGATISPGKSIFVKDCFIASSSGEWTTYPGVCIITAKGEFCHNFETSCTFDVFIECPENWNCMTAEDASQGNYIRYSDELCGYTITGFTAMNKVRCTATEKLLNALQALGV”, the “soluble on expression in E. coli” value is recorded as “not soluble”.
With “MATFMTEDFLLKNDIARTLYHKYAAPMPIYDFHCHLSPQEIADDRRFDNLGQIWLEGDHYKWRALRSAGVDESLITGKETSDYEKYMAWANTVPKTLGNPLYHWTHLELRRPFGITGTLFGPDTAESIWTQCNEKLATPAFSARGIMQQMNVRMVGTTDDPIDSLEYHRQIAADDSIDIEVAPSWRPDKVFKIELDGFVDYLRKLEAAADVSITRFDDLRQALTRRLDHFAACGCRASDHGIETLRFAPVPDDAQLDAILGKRLAGETLSELEIAQFTTAVLVWLGRQYAARGWVMQLHIGAIRNNNTRMFRLLGPDTGFDSIGDNNISWALSRLLDSMDVTNELPKTILYCLNPRDNEVLATMIGNFQGPGIAGKVQFGSGWWFNDQKDGMLRQLEQLSQMGLLSQFVGMLTDSRSFLSYTRHEYFRRILCNLLGQWAQDGEIPDDEAMLSRMVQDICFNNAQRYFTIK”, the “soluble on expression in E. coli” value is “not soluble”.
